Experimental data published in PMC2879519.

How the values were obtained:
Experiment in all cases: fluorescence quenching titration
[1] = biological target: SMC2 hinge long (mSMC2h of mSMC2h4h-l);SMC4 hinge long (mSMC4h of mSMC2h4h-l) (mouse;mouse) (UniProt Q8CG48+Q8CG47)
[2] = biological target: SMC2 hinge long (mSMC2h of mSMC2h4h-l);SMC4 hinge long (mSMC4h of mSMC2h4h-l) (mouse;mouse, UniProt Q8CG48;Q8CG47 492-680;581-766, |)
[3] = biological target: SMC2 hinge long K613E;SMC4 hinge long K698E (mouse;mouse, UniProt Q8CG48;Q8CG47 492-680;581-766, K613E|K698E)
[4] = biological target: SMC2 hinge long K566E;SMC4 hinge long K657E (mouse;mouse, UniProt Q8CG48;Q8CG47 492-680;581-766, K566E|K657E)
[5] = biological target: SMC2 hinge long K566E;SMC4 hinge long (mSMC4h of mSMC2h4h-l) (mouse;mouse, UniProt Q8CG48;Q8CG47 492-680;581-766, K566E|)
SMC2 hinge long K566E;SMC4 hinge long (mSMC4h of mSMC2h4h-l), sequence (Q8CG48 492-680 K566E, chain 1 of 2): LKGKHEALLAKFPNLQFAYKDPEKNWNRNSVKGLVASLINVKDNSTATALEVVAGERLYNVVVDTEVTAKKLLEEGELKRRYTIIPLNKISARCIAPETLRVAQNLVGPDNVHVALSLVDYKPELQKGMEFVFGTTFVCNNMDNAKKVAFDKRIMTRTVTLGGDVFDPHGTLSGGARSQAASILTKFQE
SMC2 hinge long K566E;SMC4 hinge long (mSMC4h of mSMC2h4h-l), sequence (Q8CG47 581-766, chain 2 of 2): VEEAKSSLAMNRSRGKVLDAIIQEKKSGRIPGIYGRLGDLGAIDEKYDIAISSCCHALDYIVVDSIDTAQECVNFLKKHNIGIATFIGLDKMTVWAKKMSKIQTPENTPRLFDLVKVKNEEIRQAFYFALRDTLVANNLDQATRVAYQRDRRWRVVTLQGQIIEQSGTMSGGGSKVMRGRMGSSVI

SMC2 hinge long (mSMC2h of mSMC2h4h-l);SMC4 hinge long (mSMC4h of mSMC2h4h-l) (mouse;mouse), sequence (Q8CG48 492-680, chain 1 of 2): as the sequence (Q8CG48 492-680 K566E, chain 1 of 2) above, with E75K counted along it
SMC2 hinge long (mSMC2h of mSMC2h4h-l);SMC4 hinge long (mSMC4h of mSMC2h4h-l) (mouse;mouse), sequence (Q8CG47 581-766, chain 2 of 2): as the sequence (Q8CG47 581-766, chain 2 of 2) above
SMC2 hinge long (mSMC2h of mSMC2h4h-l);SMC4 hinge long (mSMC4h of mSMC2h4h-l), sequence (Q8CG48 492-680, chain 1 of 2): as the sequence (Q8CG48 492-680 K566E, chain 1 of 2) above, with E75K counted along it
SMC2 hinge long (mSMC2h of mSMC2h4h-l);SMC4 hinge long (mSMC4h of mSMC2h4h-l), sequence (Q8CG47 581-766, chain 2 of 2): as the sequence (Q8CG47 581-766, chain 2 of 2) above
SMC2 hinge long K613E;SMC4 hinge long K698E, sequence (Q8CG48 492-680 K613E, chain 1 of 2): as the sequence (Q8CG48 492-680 K566E, chain 1 of 2) above, with E75K, K122E counted along it
SMC2 hinge long K613E;SMC4 hinge long K698E, sequence (Q8CG47 581-766 K698E, chain 2 of 2): as the sequence (Q8CG47 581-766, chain 2 of 2) above, with K118E counted along it
SMC2 hinge long K566E;SMC4 hinge long K657E, sequence (Q8CG48 492-680 K566E, chain 1 of 2): as the sequence (Q8CG48 492-680 K566E, chain 1 of 2) above
SMC2 hinge long K566E;SMC4 hinge long K657E, sequence (Q8CG47 581-766 K657E, chain 2 of 2): as the sequence (Q8CG47 581-766, chain 2 of 2) above, with K77E counted along it

Molecule	Kd [1] [µM]	Kd [2] [µM]	other results
CATCCTGTCCGCTGC / GCAGCGGACAGGATGTTTTTTTTTTTTTTT [30-mer ds-ssDNA-3']	1.55		
CATCCTGTCCGCTGC / CCGGAGAGCATCTCG / GCAGCGGACAGGATGTTTTTTTTTTTTTTTCGAGATGCTCTCCGG [45-mer ds-ss-dsDNA]	0.66		
CATCCTGTCCGCTGC / TTTTTTTTTTTTTTTGCAGCGGACAGGATG [30-mer ds-ssDNA-5']	1.77		
TTTTTTTTTTTTTTT (ssDNA) [15-mer ssDNA]		3.21 ± 0.14	
TTTTTTTTTTTTTTTTTTTTTTTTTTTTTT (ssDNA) [30-mer ssDNA]		0.45 ± 0.04	Kd [3]: 2.95 ± 0.3 µM; Kd [4]: 3.26 ± 0.58 µM; Kd [5]: 1.8 ± 0.08 µM
